Experimental data published in article PMC2860808 (Biochemical Journal, 2010).

What was measured:
[1] = target: T1, SPP–myc (signal peptide peptidase, myc-tagged) (human), Q8TCT9; assay: SDS/PAGE; conditions: remark: other sources report otherwise
T1 chain: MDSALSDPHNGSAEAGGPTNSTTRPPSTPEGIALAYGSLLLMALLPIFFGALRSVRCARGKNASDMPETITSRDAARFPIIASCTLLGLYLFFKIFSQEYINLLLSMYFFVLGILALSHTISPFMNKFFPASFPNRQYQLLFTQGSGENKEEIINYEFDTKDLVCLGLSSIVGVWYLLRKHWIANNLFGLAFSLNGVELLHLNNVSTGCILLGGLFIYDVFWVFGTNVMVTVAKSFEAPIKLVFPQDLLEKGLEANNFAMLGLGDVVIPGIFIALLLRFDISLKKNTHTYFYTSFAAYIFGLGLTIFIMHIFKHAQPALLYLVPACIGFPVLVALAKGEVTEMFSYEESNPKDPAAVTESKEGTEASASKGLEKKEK

native gel or EMSA = target: the molecule itself; assay: native gel or EMSA

B1: SPP–myc (signal peptide peptidase, myc-tagged), Q8TCT9 1-377 (enzyme)
chain: MDSALSDPHNGSAEAGGPTNSTTRPPSTPEGIALAYGSLLLMALLPIFFGALRSVRCARGKNASDMPETITSRDAARFPIIASCTLLGLYLFFKIFSQEYINLLLSMYFFVLGILALSHTISPFMNKFFPASFPNRQYQLLFTQGSGENKEEIINYEFDTKDLVCLGLSSIVGVWYLLRKHWIANNLFGLAFSLNGVELLHLNNVSTGCILLGGLFIYDVFWVFGTNVMVTVAKSFEAPIKLVFPQDLLEKGLEANNFAMLGLGDVVIPGIFIALLLRFDISLKKNTHTYFYTSFAAYIFGLGLTIFIMHIFKHAQPALLYLVPACIGFPVLVALAKGEVTEMFSYEESNPKDPAAVTESKEGTEASASKGLEKKEK
stoichiometry N [1]: 2

B2: SPP^D/A–myc (SPP-D265A, catalytically inactive, myc-tagged) (enzyme)
chain: MDSALSDPHNGSAEAGGPTNSTTRPPSTPEGIALAYGSLLLMALLPIFFGALRSVRCARGKNASDMPETITSRDAARFPIIASCTLLGLYLFFKIFSQEYINLLLSMYFFVLGILALSHTISPFMNKFFPASFPNRQYQLLFTQGSGENKEEIINYEFDTKDLVCLGLSSIVGVWYLLRKHWIANNLFGLAFSLNGVELLHLNNVSTGCILLGGLFIYDVFWVFGTNVMVTVAKSFEAPIKLVFPQDLLEKGLEANNFAMLGLGAVVIPGIFIALLLRFDISLKKNTHTYFYTSFAAYIFGLGLTIFIMHIFKHAQPALLYLVPACIGFPVLVALAKGEVTEMFSYEESNPKDPAAVTESKEGTEASASKGLEKKEK
stoichiometry N (native gel or EMSA): 2
